Test results reported in doi:10.1101/2021.10.05.463282 (2021).

Each binder was assayed against SARS-CoV-2 spike ectodomain trimer (SARS-CoV-2, ancestral (Wuhan-Hu-1) …, UniProt P0DTC2) (assay: cryo-EM structure).

| Binder | binding result |
| --- | --- |
| B8 Fab (Fab, V domains shown) VH: EVQLVQSGAEVKKPGSSVKVSCKASGGTFSNYGISWVRQAPGQGLEWMGRILPTFGTANSAQKFQGRVTITADESTGTAYMELRSLRSEDTAVYYCAKEGLAFLGYGMDVWGQGTTVTVSS VL: EIVLTQSPGTLSLSPGERATLSCRASQSVSSYLAWYQQKPGQAPRLLIYDASNRATGIPARFIGSGSGTDFTLTISSLEPEDFAVYFCQQRSNWPLTFGGGTKVEIK | binds |

The binders below were run against recombinant trimeric spike protein derived from SARS-CoV-2 (Sino Biological) (SARS-CoV-2, ancestral (Wuhan-Hu-1) …, UniProt P0DTC2) (assay: ELISA).

| Binder | binding result |
| --- | --- |
| B8-mIgA1 (antibody, V domains shown) VH: EVQLVQSGAEVKKPGSSVKVSCKASGGTFSNYGISWVRQAPGQGLEWMGRILPTFGTANSAQKFQGRVTITADESTGTAYMELRSLRSEDTAVYYCAKEGLAFLGYGMDVWGQGTTVTVSS VL: EIVLTQSPGTLSLSPGERATLSCRASQSVSSYLAWYQQKPGQAPRLLIYDASNRATGIPARFIGSGSGTDFTLTISSLEPEDFAVYFCQQRSNWPLTFGGGTKVEIK | binds |
| B8-dIgA2 (antibody, V domains shown) VH: EVQLVQSGAEVKKPGSSVKVSCKASGGTFSNYGISWVRQAPGQGLEWMGRILPTFGTANSAQKFQGRVTITADESTGTAYMELRSLRSEDTAVYYCAKEGLAFLGYGMDVWGQGTTVTVSS VL: EIVLTQSPGTLSLSPGERATLSCRASQSVSSYLAWYQQKPGQAPRLLIYDASNRATGIPARFIGSGSGTDFTLTISSLEPEDFAVYFCQQRSNWPLTFGGGTKVEIK | binds |
| B8-dIgA1 (antibody, V domains shown) VH: EVQLVQSGAEVKKPGSSVKVSCKASGGTFSNYGISWVRQAPGQGLEWMGRILPTFGTANSAQKFQGRVTITADESTGTAYMELRSLRSEDTAVYYCAKEGLAFLGYGMDVWGQGTTVTVSS VL: EIVLTQSPGTLSLSPGERATLSCRASQSVSSYLAWYQQKPGQAPRLLIYDASNRATGIPARFIGSGSGTDFTLTISSLEPEDFAVYFCQQRSNWPLTFGGGTKVEIK | binds |
| B8-IgG1 (antibody, V domains shown) VH: EVQLVQSGAEVKKPGSSVKVSCKASGGTFSNYGISWVRQAPGQGLEWMGRILPTFGTANSAQKFQGRVTITADESTGTAYMELRSLRSEDTAVYYCAKEGLAFLGYGMDVWGQGTTVTVSS VL: EIVLTQSPGTLSLSPGERATLSCRASQSVSSYLAWYQQKPGQAPRLLIYDASNRATGIPARFIGSGSGTDFTLTISSLEPEDFAVYFCQQRSNWPLTFGGGTKVEIK | binds |
| B8-mIgA2 (antibody, V domains shown) VH: EVQLVQSGAEVKKPGSSVKVSCKASGGTFSNYGISWVRQAPGQGLEWMGRILPTFGTANSAQKFQGRVTITADESTGTAYMELRSLRSEDTAVYYCAKEGLAFLGYGMDVWGQGTTVTVSS VL: EIVLTQSPGTLSLSPGERATLSCRASQSVSSYLAWYQQKPGQAPRLLIYDASNRATGIPARFIGSGSGTDFTLTISSLEPEDFAVYFCQQRSNWPLTFGGGTKVEIK | binds |
